In patent US20260217793A1 (Chugai, published 2026):

Key:
[1] = biological target: T1, FcγRIIa type R extracellular domain with C-terminal His tag (human, UniProt P12318 34-217); experiment: ratio of SPR KDs vs IL6R-B3/IL6R-L
T1 sequence (looked up): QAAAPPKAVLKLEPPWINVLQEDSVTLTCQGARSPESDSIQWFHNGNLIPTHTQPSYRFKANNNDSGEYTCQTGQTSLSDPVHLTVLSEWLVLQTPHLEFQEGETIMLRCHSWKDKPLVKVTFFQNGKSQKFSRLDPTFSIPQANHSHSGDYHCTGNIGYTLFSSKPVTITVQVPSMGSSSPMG

[2] = biological target: T2, FcγRIIb extracellular domain with C-terminal His tag (human, UniProt P31994 43-217); experiment: ratio of SPR KDs vs IL6R-B3/IL6R-L
T2 sequence (looked up): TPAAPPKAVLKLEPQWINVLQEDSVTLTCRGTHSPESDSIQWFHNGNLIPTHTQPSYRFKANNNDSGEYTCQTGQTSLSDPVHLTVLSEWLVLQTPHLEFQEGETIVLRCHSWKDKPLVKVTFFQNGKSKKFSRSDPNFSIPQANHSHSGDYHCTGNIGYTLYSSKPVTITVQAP

[3] = biological target: T2, FcγRIIb extracellular domain with …; experiment: ratio of SPR KDs, FcγRIIaH over FcγRIIb, same variant
[4] = biological target: T3, human FcγRIIa type R (Arg131) extracellular domain with C-terminal His tag (human, UniProt P12318 34-217); experiment: SPR
T3 sequence (looked up): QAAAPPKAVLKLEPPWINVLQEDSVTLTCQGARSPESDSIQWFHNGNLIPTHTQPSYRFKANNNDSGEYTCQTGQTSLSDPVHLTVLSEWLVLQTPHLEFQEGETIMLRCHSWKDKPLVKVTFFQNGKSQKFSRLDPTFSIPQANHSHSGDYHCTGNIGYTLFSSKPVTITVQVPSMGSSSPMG

[5] = biological target: T4, human FcγRIIb extracellular domain with C-terminal His tag (human, UniProt P31994 43-217); experiment: SPR
T4 sequence (looked up): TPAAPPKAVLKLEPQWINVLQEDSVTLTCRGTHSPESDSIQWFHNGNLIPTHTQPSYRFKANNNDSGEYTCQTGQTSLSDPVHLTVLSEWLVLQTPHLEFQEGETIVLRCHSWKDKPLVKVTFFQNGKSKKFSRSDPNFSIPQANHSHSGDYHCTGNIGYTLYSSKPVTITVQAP

[6] = biological target: human FcγRIIIa type V (Val158) extracellular domain with C-terminal His tag (human, UniProt P08637 17-208); experiment: SPR
[7] = biological target: T2, FcγRIIb extracellular domain with …; experiment: ratio of SPR KDs, FcγRIIaR over FcγRIIb, same variant

Sequence of human FcγRIIIa type V (Val158) extracellular domain with C-terminal His tag (P08637 17-208 F176V): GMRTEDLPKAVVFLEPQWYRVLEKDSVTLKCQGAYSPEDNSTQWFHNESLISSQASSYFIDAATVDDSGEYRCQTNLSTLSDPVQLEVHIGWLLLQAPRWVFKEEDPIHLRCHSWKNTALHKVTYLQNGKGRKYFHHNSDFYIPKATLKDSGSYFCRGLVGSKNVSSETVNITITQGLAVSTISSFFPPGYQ

Binder	KD (IIaR) of parent polypeptide/KD (IIaR) of altered polypeptide [1]	KD (IIb) of parent polypeptide/KD (IIb) of altered polypeptide [2]	KD (IIaH)/KD (IIb) [3]	KD (IIaR) of parent polypeptide/KD (IIaR) of altered polypeptide [4]	KD (IIb) of parent polypeptide/KD (IIb) of altered polypeptide [5]	Kd [6] [µM]	KD (IIaR)/KD (IIb) [7]
IL6R-BP487/IL6R-L (antibody, human IgG1, kappa) heavy: QVQLQESGPGLVKPSETLSLTCAVSGHSISHDHAWSWVRQPPGEGLEWIGFISYSGITNYNPSLQGRVTISRDNSKNTLYLQMNSLRAEDTAVYYCARSLARTTAMDYWGEGTLVTVSSASTKGPSVFPLAPSSKSTSGGTAALGCLVKDYFPEPVTVSWNSGALTSGVHTFPAVLQSSGLYSLSSVVTVPSSSLGTQTYICNVNHKPSNTKVDKKVEPKSCDKTHTCPPCPAPDLLGDDSVFLFPPKPKDTLMISRTPEVTCVVIDVAEEDGEVKFNWYVDGVEVHNAKTKPREEQYNSTYRVVSVLTVLHQDWLNGKEYKCKVSNKALPRPIEKTISKAKGQPREPQVYTLPPSRDELTKNQVSLTCLVKGFYPSDIAVEWESNGQPENNYKTTPMVLDSDGSFFLYSKLTVDKSRWQQGNVFSCSVMHEALHNHYTQESLSLSP light: not shown	28.3	2700	730	–	–	–	–
IL6R-BP565/IL6R-L (antibody, human IgG1, kappa) heavy: QVQLQESGPGLVKPSETLSLTCAVSGHSISHDHAWSWVRQPPGEGLEWIGFISYSGITNYNPSLQGRVTISRDNSKNTLYLQMNSLRAEDTAVYYCARSLARTTAMDYWGEGTLVTVSSASTKGPSVFPLAPSSKSTSGGTAALGCLVKDYFPEPVTVSWNSGALTSGVHTFPAVLQSSGLYSLSSVVTVPSSSLGTQTYICNVNHKPSNTKVDKKVEPKSCDKTHTCPPCPAPDLLGDDSVFLFPPKPKDTLMISRTPEVTCVVVDVAEEDGEVKFNWYVDGVEVHNAKTKPREEQDNSTYRVVSVLTVLHQDWLNGKEYKCKVSNKALPRPIEKTISKAKGQPREPQVYTLPPSRDELTKNQVSLTCLVKGFYPSDIAVEWESNGQPENNYKTTPPVLDSDGSFFLYSKLTVDKSRWQQGNVFSCSVMHEALHNHYTQESLSLSP light: not shown	–	–	–	4.8	565	21	–
IL6R-BP492/IL6R-L (antibody, human IgG1, kappa) heavy: QVQLQESGPGLVKPSETLSLTCAVSGHSISHDHAWSWVRQPPGEGLEWIGFISYSGITNYNPSLQGRVTISRDNSKNTLYLQMNSLRAEDTAVYYCARSLARTTAMDYWGEGTLVTVSSASTKGPSVFPLAPSSKSTSGGTAALGCLVKDYFPEPVTVSWNSGALTSGVHTFPAVLQSSGLYSLSSVVTVPSSSLGTQTYICNVNHKPSNTKVDKKVEPKSCDKTHTCPPCPAPELLGGDSVFLFPPKPKDTLMISRTPEVTCVVIDVAEEDGEVKFNWYVDGVEVHNAKTKPREEQYNSTYRVVSVLTVLHQDWLNGKEYKCKVSNKALPAPIEKTISKAKGQPREPQVYTLPPSRDELTKNQVSLTCLVKGFYPSDIAVEWESNGQPENNYKTTPPVLDSDGSFFLYSKLTVDKSRWQQGNVFSCSVMHEALHNHYTQESLSLSP light: not shown	1.2	131	–	–	–	–	–
IL6R-BP563/IL6R-L (antibody, human IgG1, kappa) heavy: QVQLQESGPGLVKPSETLSLTCAVSGHSISHDHAWSWVRQPPGEGLEWIGFISYSGITNYNPSLQGRVTISRDNSKNTLYLQMNSLRAEDTAVYYCARSLARTTAMDYWGEGTLVTVSSASTKGPSVFPLAPSSKSTSGGTAALGCLVKDYFPEPVTVSWNSGALTSGVHTFPAVLQSSGLYSLSSVVTVPSSSLGTQTYICNVNHKPSNTKVDKKVEPKSCDKTHTCPPCPAPDLLGDDSVFLFPPKPKDTLMISRTPEVTCVVVDVSEEDGDVKFNWYVDGVEVHNAKTKPREEQDNSTYRVVSVLTVLHQDWLNGKEYKCKVSNKALPRPIEKTISKAKGQPREPQVYTLPPSRDELTKNQVSLTCLVKGFYPSDIAVEWESNGQPENNYKTTPPVLDSDGSFFLYSKLTVDKSRWQQGNVFSCSVMHEALHNHYTQESLSLSP light: not shown	–	–	–	2.4	196	38	–
IL6R-BP551/IL6R-L (antibody, human IgG1, kappa) heavy: QVQLQESGPGLVKPSETLSLTCAVSGHSISHDHAWSWVRQPPGEGLEWIGFISYSGITNYNPSLQGRVTISRDNSKNTLYLQMNSLRAEDTAVYYCARSLARTTAMDYWGEGTLVTVSSASTKGPSVFPLAPSSKSTSGGTAALGCLVKDYFPEPVTVSWNSGALTSGVHTFPAVLQSSGLYSLSSVVTVPSSSLGTQTYICNVNHKPSNTKVDKKVEPKSCDKTHTCPPCPAPELLGDDSVFLFPPKPKDTLMISRTPEVTCVVIDVSEEDGDVKFNWYVDGVEVHNAKTKPREEQDNSTYRVVSVLTVLHQDWLNGKEYKCKVSNKALPRPIEKTISKAKGQPREPQVYTLPPSRDELTKNQVSLTCLVKGFYPSDIAVEWESNGQPENNYKTTPPVLDSDGSFFLYSKLTVDKSRWQQGNVFSCSVMHEALHNHYTQESLSLSP light: not shown	–	–	–	4.5	482	48	–
IL6R-BP496/IL6R-L (antibody, human IgG1, kappa) heavy: QVQLQESGPGLVKPSETLSLTCAVSGHSISHDHAWSWVRQPPGEGLEWIGFISYSGITNYNPSLQGRVTISRDNSKNTLYLQMNSLRAEDTAVYYCARSLARTTAMDYWGEGTLVTVSSASTKGPSVFPLAPSSKSTSGGTAALGCLVKDYFPEPVTVSWNSGALTSGVHTFPAVLQSSGLYSLSSVVTVPSSSLGTQTYICNVNHKPSNTKVDKKVEPKSCDKTHTCPPCPAPDLLGDDSVFLFPPKPKDTLMISRTPEVTCVVIDVAEEDGEVKFNWYVDGVEVHNAKTKPREEQDNSTYRVVSVLTVLHQDWLNGKEYKCKVSNKALPAPIEKTISKAKGQPREPQVYTLPPSRDELTKNQVSLTCLVKGFYPSDIAVEWESNGQPENNYKTTPPVLDSDGSFFLYSKLTVDKSRWQQGNVFSCSVMHEALHNHYTQESLSLSP light: not shown	2.3	–	201	–	–	–	25.5
IL6R-BP489/IL6R-L (antibody, human IgG1, kappa) heavy: QVQLQESGPGLVKPSETLSLTCAVSGHSISHDHAWSWVRQPPGEGLEWIGFISYSGITNYNPSLQGRVTISRDNSKNTLYLQMNSLRAEDTAVYYCARSLARTTAMDYWGEGTLVTVSSASTKGPSVFPLAPSSKSTSGGTAALGCLVKDYFPEPVTVSWNSGALTSGVHTFPAVLQSSGLYSLSSVVTVPSSSLGTQTYICNVNHKPSNTKVDKKVEPKSCDKTHTCPPCPAPDLLGDDSVFLFPPKPKDTLMISRTPEVTCVVIDVAEEDGEVKFNWYVDGVEVHNAKTKPREEQDNSTYRVVSVLTVLHQDWLNGKEYKCKVSNKALPRPIEKTISKAKGQPREPQVYTLPPSRDELTKNQVSLTCLVKGFYPSDIAVEWESNGQPENNYKTTPMVLDSDGSFFLYSKLTVDKSRWQQGNVFSCSVMHEALHNHYTQESLSLSP light: not shown	25.7	3100	870	–	–	–	–
IL6R-BP494/IL6R-L (antibody, human IgG1, kappa) heavy: QVQLQESGPGLVKPSETLSLTCAVSGHSISHDHAWSWVRQPPGEGLEWIGFISYSGITNYNPSLQGRVTISRDNSKNTLYLQMNSLRAEDTAVYYCARSLARTTAMDYWGEGTLVTVSSASTKGPSVFPLAPSSKSTSGGTAALGCLVKDYFPEPVTVSWNSGALTSGVHTFPAVLQSSGLYSLSSVVTVPSSSLGTQTYICNVNHKPSNTKVDKKVEPKSCDKTHTCPPCPAPELLGDDSVFLFPPKPKDTLMISRTPEVTCVVVDVAEEDGEVKFNWYVDGVEVHNAKTKPREEQDNSTYRVVSVLTVLHQDWLNGKEYKCKVSNKALPRPIEKTISKAKGQPREPQVYTLPPSRDELTKNQVSLTCLVKGFYPSDIAVEWESNGQPENNYKTTPPVLDSDGSFFLYSKLTVDKSRWQQGNVFSCSVMHEALHNHYTQESLSLSP light: not shown	4.3	471	821	–	–	–	–
IL6R-BP491/IL6R-L (antibody, human IgG1, kappa) heavy: QVQLQESGPGLVKPSETLSLTCAVSGHSISHDHAWSWVRQPPGEGLEWIGFISYSGITNYNPSLQGRVTISRDNSKNTLYLQMNSLRAEDTAVYYCARSLARTTAMDYWGEGTLVTVSSASTKGPSVFPLAPSSKSTSGGTAALGCLVKDYFPEPVTVSWNSGALTSGVHTFPAVLQSSGLYSLSSVVTVPSSSLGTQTYICNVNHKPSNTKVDKKVEPKSCDKTHTCPPCPAPELLGDDSVFLFPPKPKDTLMISRTPEVTCVVIDVAEEDGEVKFNWYVDGVEVHNAKTKPREEQDNSTYRVVSVLTVLHQDWLNGKEYKCKVSNKALPRPIEKTISKAKGQPREPQVYTLPPSRDELTKNQVSLTCLVKGFYPSDIAVEWESNGQPENNYKTTPPVLDSDGSFFLYSKLTVDKSRWQQGNVFSCSVMHEALHNHYTQESLSLSP light: not shown	9.3	–	724	–	–	–	38.8
